Results as given in article PMC2836179 (Biochemistry, 2010).

B1: His6-N-WASp (natural protein, human, UniProt O00401 1-505, looked up)
chain: MSSVQQQPPPPRRVTNVGSLLLTPQENESLFTFLGKKCVTMSSAVVQLYAADRNCMWSKKCSGVACLVKDNPQRSYFLRIFDIKDGKLLWEQELYNNFVYNSPRGYFHTFAGDTCQVALNFANEEEAKKFRKAVTDLLGRRQRKSEKRRDPPNGPNLPMATVDIKNPEITTNRFYGPQVNNISHTKEKKKGKAKKKRLTKADIGTPSNFQHIGHVGWDPNTGFDLNNLDPELKNLFDMCGISEAQLKDRETSKVIYDFIEKTGGVEAVKNELRRQAPPPPPPSRGGPPPPPPPPHNSGPPPPPARGRGAPPPPPSRAPTAAPPPPPPSRPSVAVPPPPPNRMYPPPPPALPSSAPSGPPPPPPSVLGVGPVAPPPPPPPPPPPGPPPPPGLPSDGDHQVPTTAGNKAALLDQIREGAQLKKVEQNSRPVSCSGRDALLDQIRQGIQLKSVADGQESTPPTPAPTSGIVGALMEVMQKRSKAIHSSDEDEDEDDEEDFEDDDEWED

Tests used:
Test in all cases: pull-down
[1] = target: Phosphorylated N-WASp (pN-WASp) (human, UniProt O00401 1-505, tyrosine phosphorylated by co-expressed Arg; Y256 is the primary site)
His6-N-WASp = target: B1
[2] = target: full-length Arg (His6-Arg) (mouse, UniProt Q4JIM5 1-1182)
Sequence of full-length Arg (His6-Arg) (Q4JIM5 whole entry): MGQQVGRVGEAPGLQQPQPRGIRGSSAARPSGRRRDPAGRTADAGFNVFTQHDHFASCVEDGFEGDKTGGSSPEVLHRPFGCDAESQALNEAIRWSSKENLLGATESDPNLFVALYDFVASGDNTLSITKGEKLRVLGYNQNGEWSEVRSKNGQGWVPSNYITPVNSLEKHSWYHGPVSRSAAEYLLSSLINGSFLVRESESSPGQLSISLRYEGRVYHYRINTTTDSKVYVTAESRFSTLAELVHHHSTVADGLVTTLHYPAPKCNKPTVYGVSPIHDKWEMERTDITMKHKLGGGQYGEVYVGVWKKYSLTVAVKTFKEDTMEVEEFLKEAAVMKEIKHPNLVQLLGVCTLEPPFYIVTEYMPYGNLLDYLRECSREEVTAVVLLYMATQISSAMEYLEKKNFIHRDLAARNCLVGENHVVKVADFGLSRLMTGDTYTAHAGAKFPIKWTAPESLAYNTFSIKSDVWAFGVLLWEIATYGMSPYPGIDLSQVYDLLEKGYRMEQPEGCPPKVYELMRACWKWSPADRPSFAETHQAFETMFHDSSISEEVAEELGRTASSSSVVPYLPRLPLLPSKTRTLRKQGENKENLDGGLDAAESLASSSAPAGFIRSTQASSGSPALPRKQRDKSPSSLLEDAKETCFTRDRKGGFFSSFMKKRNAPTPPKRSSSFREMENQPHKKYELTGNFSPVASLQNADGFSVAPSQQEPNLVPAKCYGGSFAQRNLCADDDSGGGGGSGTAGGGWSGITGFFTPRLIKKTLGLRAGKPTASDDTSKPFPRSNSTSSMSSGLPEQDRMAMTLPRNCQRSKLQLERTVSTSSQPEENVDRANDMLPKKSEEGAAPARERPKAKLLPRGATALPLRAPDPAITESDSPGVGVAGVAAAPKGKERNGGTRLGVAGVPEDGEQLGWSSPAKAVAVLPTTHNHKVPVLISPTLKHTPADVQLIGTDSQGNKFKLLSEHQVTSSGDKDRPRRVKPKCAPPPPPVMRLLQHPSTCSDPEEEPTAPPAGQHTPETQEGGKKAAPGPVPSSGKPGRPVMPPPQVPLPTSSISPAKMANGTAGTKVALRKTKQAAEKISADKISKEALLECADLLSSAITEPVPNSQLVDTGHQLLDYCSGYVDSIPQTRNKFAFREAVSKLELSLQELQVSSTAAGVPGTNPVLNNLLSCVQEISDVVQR

| Binder | Kd [1] [nM] | Kd (His6-N-WASp) [nM] | Kd [2] [nM] |
| --- | --- | --- | --- |
| GST-Arg-SH3SH2 (domain or fragment, mouse, UniProt Q4JIM5 107-263, looked up) SDPNLFVALYDFVASGDNTLSITKGEKLRVLGYNQNGEWSEVRSKNGQGWVPSNYITPVNSLEKHSWYHGPVSRSAAEYLLSSLINGSFLVRESESSPGQLSISLRYEGRVYHYRINTTTDSKVYVTAESRFSTLAELVHHHSTVADGLVTTLHYPA | 1700 ± 100 | ≥ 3700 | – |
| B1 | – | – | ≥ 3800 |
| GST-Arg-SH3 (domain or fragment, mouse, UniProt Q4JIM5 107-167, looked up) SDPNLFVALYDFVASGDNTLSITKGEKLRVLGYNQNGEWSEVRSKNGQGWVPSNYITPVNS | – | 1400 ± 200 | – |
